What all share (assay): ELISA
(In an ELISA, binding on a coated surface is turned into a signal by an enzyme label.)

In experiment [1] the target is Human FcR1 (human) (UniProt P12314).
Experiment [2] deals with Human FcRIIA[H] (human) (UniProt P12318).
Experiment [3] concerns the target Human FcRIIA[R].
Experiment [4] has as its target Human FcRIIB.
Experiment [5] addresses Human FcRIII (human).
Experiment [6] deals with Human FcRn.
The target in experiment [7] is Mouse FcRIIB.
The target in experiment [8] is Mouse FcRIV.
Mouse FcRIV, sequence (A0A0B4J1G0 21-203): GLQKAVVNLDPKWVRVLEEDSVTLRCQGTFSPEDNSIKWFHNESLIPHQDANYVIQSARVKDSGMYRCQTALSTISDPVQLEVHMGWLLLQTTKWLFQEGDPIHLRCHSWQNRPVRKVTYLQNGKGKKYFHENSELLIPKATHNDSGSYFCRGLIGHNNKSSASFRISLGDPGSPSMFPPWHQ
The target in experiment [9] is Mouse FcRI.

Results on one substance are retold here after patent publication US20190111115A1.

Human FcR1 (human), sequence (P12314 16-292): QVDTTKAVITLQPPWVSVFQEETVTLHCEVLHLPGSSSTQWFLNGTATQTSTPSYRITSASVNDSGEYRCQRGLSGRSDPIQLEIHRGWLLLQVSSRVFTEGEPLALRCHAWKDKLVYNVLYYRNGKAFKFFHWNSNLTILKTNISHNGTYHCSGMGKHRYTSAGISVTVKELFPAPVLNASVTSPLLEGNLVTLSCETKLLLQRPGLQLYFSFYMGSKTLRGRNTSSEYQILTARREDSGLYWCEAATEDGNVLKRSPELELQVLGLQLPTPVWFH
Human FcRIII (human), sequence (P08637 17-208): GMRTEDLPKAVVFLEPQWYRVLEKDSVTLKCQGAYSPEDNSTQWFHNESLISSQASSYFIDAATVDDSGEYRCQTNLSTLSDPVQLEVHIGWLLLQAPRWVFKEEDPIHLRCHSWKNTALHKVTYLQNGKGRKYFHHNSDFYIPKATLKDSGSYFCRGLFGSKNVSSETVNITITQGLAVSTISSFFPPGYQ
Human FcRIIA[H] (human), sequence (P12318 34-217): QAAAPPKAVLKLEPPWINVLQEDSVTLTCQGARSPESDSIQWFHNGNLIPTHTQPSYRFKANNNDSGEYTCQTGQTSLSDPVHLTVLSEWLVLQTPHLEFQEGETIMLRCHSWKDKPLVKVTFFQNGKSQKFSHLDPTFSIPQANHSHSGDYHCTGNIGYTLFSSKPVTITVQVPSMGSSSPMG

IgG1: the Kd (in general, the constant that tells how readily two partners part at equilibrium) in experiment [1] came out at 0.161 nM; in experiment [2], 333 nM; in experiment [3] it was 200 nM; in experiment [4], 876 nM; in experiment [5], 1180 nM; in [6], 14 nM. Besides, the results for the Kd in [7], in [8] and in experiment [9] were 375 nM, 6.52 nM and 1.33 nM, respectively.
